From patent US9328334B2, “Luciferase derived from lucidina accensa” (OLYMPUS CORPORATION, priority 2011, dated 2016)
Entries after “also recorded” stand apart in the source; their conditions may differ.

Experiments:
[1] = Measurement of Km for D-luciferin; type: biochemical; details: 0.1 M Tris-HCl pH 8.0, ATP and MgSO4 present
Experimental: Eight types of D-luciferin solution of various concentrations were prepared by adding D-luciferin to 0.1 M Tris-HCl (pH 8.0). These solutions contain D-luciferin at final concentrations of 0.625, 1.25, 2.5, 5, 10, 20, 40, and 80 μM. These D-luciferin solutions were aliquoted into 96-well microplate at a volume of 50 μL each. A solution of 0.1 M Tris-HCl (pH 8.0) containing each of the purified luciferase, 4 mM of ATP, and 8 mM of MgSO4 was connected to the standard pump of the luminometer, and the measurements was carried out at the same time as addition of 50 μL of the solution to the well. A Luminescensor (manufactured by ATTO Corporation) was used for the measurements. Measurements were repeated 3 times for each luciferin concentration.
(§1) The peak intensity of the obtained photon count value was plotted with respect to luciferin concentration S, defining the initial rate as V. The plots were subjected to curve fitting of Michaelis Menten type, thereby giving Km values. The curve fitting was performed by a nonlinear least-squares method, and the search of the parameter was performed by a Newton method.

HeLa cell = assay: Luminescence intensity of luciferase expressed in HeLa cell, comparison with P. pyralis luciferase (Example 3); type: cell-based; details: 2 mM D-luciferin, 25° C., 90 min after starting measurement
Experimental: Each of the wild type luciferase derived from L. accensa, the mutant luciferase derived from L. accensa (N50D and 1530R), and the luciferase derived from P. pyralis (SEQ ID NO: 33) was expressed in a HeLa cell, and the luminescence intensity was measured and compared to each other.
Further, since the pF9A vector contains the luciferase gene derived from Renilla reniformis as an internal control, it is possible to obtain the luminescence intensity from the luminescent gene inserted to the multicloning site as a ratio compared to the luminescence intensity emitted by the Renilla luciferase.
Three types of plasmids obtained in such a manner described above were each subjected to gene transfection to a HeLa cell, which has been inoculated in a 24-well plate, by a lipofection method, and 24 hours later, the cells were washed with PBS. To each well of a 24-well plate, 500 μL of 2 mM D-luciferin/CO2 Independent Medium (manufactured by Invitrogen) was added and the luminescence intensity was measured for 90 min by using a Luminescensor (manufactured by ATTO Corporation) under the condition including 25° C. and 1 sec per each well. The luminescence intensity which is obtained at the time point of 90 min after starting the measurement was taken as the luminescence intensity of the wild type luciferase, the mutant luciferase, and P. pyralis luciferase. […] Subsequently, 500 μL of 10 μM coelenterazine/CO2 Independent Medium was added to each well and the luminescence intensity was measured for 30 min by using a Luminescensor under the condition including 25° C. and 1 sec per each well. The luminescence intensity obtained at five minutes after the addition of coelenterazine was taken as luminescence intensity of the Renilla luciferase, which is an internal control. Each of the luminescence intensity from the wild type luciferase, the mutant luciferase, and P. pyralis luciferase was divided by the luminescence intensity of the Renilla luciferase, and the results are illustrated as a graph illustrating the luminescence intensity of each luciferase.

[2] = Measurement of Km value with respect to ATP; type: biochemical; details: 0.1 M Tris-HCl pH 8.0, D-luciferin and MgSO4 present
Experimental: Various 8 types of ATP solutions with different concentrations were prepared by adding ATP to 0.1 M Tris-HCl (pH 8.0). These solutions contain ATP at final concentration of 10, 20, 40, 80, 160, 320, 480, and 640 μM. These ATP solutions were aliquoted into a 96-well microplate at a volume of 50 μl each. 0.1 M Tris-HCl (pH 8.0) solution containing each purified luciferase, 1 mM of D-luciferin, and 8 mM of MgSO4 was connected to a standard pump of a luminometer, and the measurement was carried out at the same time as addition of 50 μL of the solution to wells. Measurement was repeated 3 times for each ATP concentration.
as §1, with “peak intensities” for “peak intensity”, “value were” for “value was”, “to ATP” for “to luciferin”, “S, with an” for “S, defining the”, “rate” for “rate as”, “Km value.” for “Km values.”

[3] = Measurement of light emission spectra of purified luciferase under various pH environments; type: biochemical; details: light emission spectra at various pH
Experimental: With use of LumiFlSpectroCapture (manufactured by ATTO Corporation) as an apparatus for measurement, to a solution of 0.1 M citric acid/0.1 M Na2HPO4 buffer (pH 5.5 to 8.0) containing 1 mM of D-luciferin, 2 mM of ATP and 4 mM of MgCl2 the purified enzyme was added at a final concentration of 1 μg/mL, and after 15 seconds of addition of the enzyme luminescence spectra was measured. The measurement results were illustrated in FIG. 1.
After that, each of thus-prepared genes (SEQ ID NOs: 38 and 39) was introduced into pRSET-B vector according to the same method as the Example 2. This vector was transformed to E. coli JM109 (DE3) strain to express the mutant luciferase. Subsequently, the mutant luciferase was purified from E. coli. In addition, under various pH environments, the light emission spectrum was measured according to the same method as the Example 2 from a light emitting reaction catalyzed by the mutant luciferase.

[4] = Stability against degradation: SDS-polyacrylamide gel electrophoresis of lysate of E. coli expressing each luciferase (Example 4); details: lysate of E. coli BL21 (DE3) CodonPlus expressing the luciferase
Experimental: Stability against degradation was determined for the wild type luciferase derived from L. accensa in comparison with a known luciferase derived from L. biplagiata.
The above three genes were introduced into an expression vector and expressed in E. coli. The expression was carried out in the same manner as the Example 2 except that BL21 (DE3) CodonPlus (manufactured by Stratagene Corporation) was used as E. coli strain and the cells were cultured appropriately.
The lysate was prepared from the E. coli expressing each gene, and then subjected to SDS-polyacrylamide gel electrophoresis. It was confirmed that, as a band with the biggest size, a single band is present near 70 kDa for all three kinds of protein. […] Meanwhile, in the luciferase derived from L. biplagiata (i.e., left and right lanes), several bands with a size smaller than 70 kDa were identified.

HeLa cells = assay: Luminescence intensity of luciferase expressed in HeLa cells, comparison with L. biplagiata luciferase (Example 5); type: cell-based; details: 37° C.
Text: The luminescence intensity from the light emitting reaction using the wild type luciferase derived from L. accensa (SEQ ID NO: 1) was compared to the luminescence intensity from the light emitting reaction using the luciferase derived from L. biplagiata having the literature sequence (SEQ ID NO: 30) or the luciferase derived from L. biplagiata having the cloned sequence (SEQ ID NO: 31). Further, based on the difference between the literature sequence and the cloned sequence, the amino acid residue at position 249 of the amino acid sequence of the wild type luciferase, i.e., methionine, was changed to lysine to prepare the mutant luciferase (M249K), which was then used for the intensity measurement.
With regard to the four types of the luciferase, a nucleic acid containing a gene optimized for mammalian cell expression was given with a Kozak sequence, and then inserted between SgfI and PmeI sites within the multicloning site of pF9A CMV hRLuc neo Flexi vector (manufactured by Promega). Further, since the pF9A vector contains the luciferase gene derived from Renilla reniformis as an internal control in the vector sequence, it is possible to obtain the luminescence intensity from the luminescent gene inserted to the multicloning site as a ratio compared to the luminescence intensity emitted by the Renilla luciferase.
Four types of luciferase plasmids obtained in such a manner described above were each subjected to gene transfection to HeLa cells inoculated in a 48-well plate by a lipofection method, and 24 hours later, the cells were washed with PBS. To each well of a 48-well plate, 500 μL of 2 mM D-luciferin/CO2 Independent Medium (manufactured by Invitrogen) was added and the luminescence intensity was measured for 90 min by using a Luminescensor (manufactured by ATTO Corporation) under the condition including 37° C. and 1 sec per each well. The luminescence intensity which is obtained at the time point of 90 min after starting the measurement was taken as the luminescence intensity of each luciferase. […] Subsequently, 500 μL of 10 μM coelenterazine/CO2 Independent Medium was added to each well and the luminescence intensity was measured for 30 min by using a Luminescensor under the condition including 37° C. and 1 sec per each well. The luminescence intensity obtained at five minutes after the addition of coelenterazine was taken as luminescence intensity of the Renilla luciferase, which is an internal control. Each of the luminescence intensities from the luciferases was divided by the luminescence intensity of the Renilla luciferase, yielding the luminescence intensity of each luciferase. The measurements were carried out multiple times for each luciferase, and the luminescence intensity was obtained as a mean value.

B1: wild type luciferase: wild type luciferase obtained from Lucidina accensa, amino acid sequence SEQ ID NO: 1 (protein, listed as Lucidina accensa)
chain: MEEDKNILRGPAPFYPLEDGTAGEQLHRAMKRYALIPGTIAFTDAHAGVNITYSEYFEMACRLAESLKRYGLGLQHRIVVCSENSLQFFMPVVGALFIGVGVAPANDIYNERELLNSMTISQPTLVFCSRKGLQKILNVQKKLPVIQKIIILDTKEDYMGFQSMYSFVDSQLPVGFNEYDYVPDSFDRDQATALIMNSSGSTGLPKGVELNHTSVCVRFSHCRDPVYGNQIIPDTAILSVIPFHHGFGMFTTLGYLICGFRVVLMYRFEEELFLRSLQDYKIQSALLVPTLFSFFAKSTLIDKYDLSNLHEIASGGAPLAKEVGEAVAKRFNLRGIRQGYGLTETTSAVIITPEGDDKPGAVGKVVPFFSAKVVDLDTGKTLGVNQRGELCLKGPMIMKGYVNNPEATNALIDKDGWLHSGDISYWDEDGHFFIVDRLKSLIKYKGYQVPPAELESILLQHPFIFDAGVAGIPDDEAGELPAAVVVLEEGKTMTEKEIMDYVAGQVTTAKRLRGGVVFVDEVPKGLTGKIDARKIREILVKVKKTKSKL
[1]
  Km: 16 µM
HeLa cell
  luminescence intensity (divided by luminescence intensity of Renilla luciferase internal control): 7.3
[2]
  Km: 47.6 µM
[3]
  pH environment giving the highest luminescence intensity: 8 pH
[4]
  stability against protein degradation (bands on stained SDS-PAGE gel): no other band was identified; also recorded: hardly degraded; also recorded: no degradation occurred
HeLa cells; 2 mM D-luciferin, 90 min
  luminescence intensity, mean value (divided by Renilla luciferase intensity): 3.48
HeLa cells
  luminescence intensity in comparison to luciferase derived from L. biplagiata having the literature sequence: ≥ 29 times
  luminescence intensity in comparison to mutant luciferase M249K: ≥ 34.8 times
